# Where no end group is shown, it is not given here.
# B1: His-tagged MUC1 cytoplasmic domain (other)
# chain: CQCRRKNYGQLDIFPARDTYHPMSEYPTYHTHGRYVPPSSTDRSPYEKVSAGNGGSSLSYTNPAVAATSANL
# notes: Purified recombinant protein; It forms oligomers; also called His-MUC1-CD; His-tagged MUC1-CD; not shown: His tag
# B2: MUC1/CQC peptide (peptide)
# peptide: CQCRRKNYGQLDIFP
# modifications: cysteine pairing not given here; also: poly-D-Arg transduction domain, length and attachment end not given here
# notes: Synthetic peptide (MIT Biopolymer Laboratory); also called CQC long (15-mer); not shown: The poly-D-Arg cell transduction domain
# Tests used:
# [1] = target: the molecule itself; assay: self-association of purified His-MUC1-CD (1.5 mg/ml); non-reducing SDS-polyacrylamide gel, immunoblot with anti-MUC1-C; incubated 1 h with PBS, 200 uM MUC1/CQC or 200 uM MUC1/AQA
# Procedure: (§1) Schematic representation of the MUC1-C subunit and the 72-amino acid sequence of MUC1-CD are shown. The N-terminal 15 amino acids (shaded sequence) MUC1/CQC and mutated MUC1/AQA peptides were synthesized with the poly-dArg transduction domain. (FIG. 1B) His-MUC1-CD (1.4 mg/ml) was immobilized on a sensor chip in a BIAcore. MUC1/CQC was injected over the chip at 10 μM. Raw binding data were analyzed by BIAevaluation software version 3.0 and fit to a 1:1 Languir binding model. (FIG. 1C) Purified His-MUC1-CD (1.5 mg/ml) was incubated with PBS, 200 μM MUC1/CQC or 200 μM MUC1/AQA for 1 h at room temperature. The proteins were separated in a non-reducing SDS-polyacrylamide gel and analyzed by immunoblotting with anti-MUC1-C. (FIG. 1D) 293 cells were transiently transfected to express an empty vector or GFP-MUC1-CD and Flag-MUC1-CD. At 48 h after transfection, the cells were treated with 5 μM MUC1/CQC or MUC1/AQA for 3 d. The cells were then harvested for immunoblotting with anti-MUC1-C (left panel). Whole cell lysates were also precipitated with anti-Flag and the precipitates were immunoblotted with the indicated antibodies (right panels).
# [2] = target: B1; assay: BIAcore (SPR), His-MUC1-CD immobilized, peptide injected at 10 uM, 1:1 Langmuir fit
# Procedure: as §1, with “The” for “Schematic representation of the MUC1-C subunit and the 72-amino acid sequence of MUC1-CD are shown. The”
# Effects of the MUC1/CQC peptide on MUC1 oligomer formation. The MUC1 cytoplasmic domain (MUC1-CD) contains a CQC motif that is necessary for the formation of oligomers and nuclear localization (Leng et al., 2007). […] Purified His-tagged MUC1-CD forms oligomers as detected by electrophoresis in polyacrylamide gels (FIG. 1C).
binder,measurement,setting,value
B1,binding result,[1],binds
B2,Kd,[2],30 nM

# From US20100125055A1 (Dana-Farber, published 2010)
